# Measured values published in paper PMC3901395, “Multivalent interactions of the SUMO-interaction motifs in RING finger protein 4 determine the specificity for chains of the SUMO” (Biochemical Journal, 2013).
# B1: RNF4 FL: full-length human RNF4 (RING finger protein 4); FLAG-tagged in yeast, HA-tagged in HeLa cells (protein)
# chain: MSTRKRRGGAINSRQAQKRTREATSTPEISLEAEPIELVETAGDEIVDLTCESLEPVVVDLTHNDSVVIVDERRRPRRNARRLPQDHADSCVVSSDDEELSRDRDVYVTTHTPRNARDEGATGLRPSGTVSCPICMDGYSEIVQNGRLIVSTECGHVFCSQCLRDSLKNANTCPTCRKKINHKRYHPIYI
# modifications: left off: GST, end not stated, cleaved
# notes: full-length human RNF4 (RING finger protein 4); FLAG-tagged in yeast, HA-tagged in HeLa cells
# How the values were obtained:
# PML-NBs in HeLa cells = assay: Disruption of PML-NBs by overexpression of RNF4 in HeLa cells; assay type: cell-based; details: HeLa cells transfected with HA-tagged full-length RNF4; automatic image analysis, 30 to 60 cells per condition; GFP control plasmid 12 PML-NBs, untreated average 15
# Experimental: HeLa B-cells were grown on coverslips and fixed in PBS with 3% paraformaldehyde. After permeabilization in PBS with 0.2% saponin (Sigma–Aldrich), cells were blocked in PBS, 3% BSA and 0.2% saponin. Primary and Alexa Fluor®-labelled secondary antibodies (Invitrogen) were applied in blocking buffer. Coverslips were embedded in ProLong® Gold Antifade (Invitrogen) and examined using a Zeiss Axioplan2 fluorescence microscope. Proteins and epitope tags were detected with the following antibodies against PML (A167 and A168; Bethyl), HA (haemagglutinin) (3F10; Roche, 16B12; Covance) and CDC11 (SC-7170; Santa Cruz Biotechnology). The secondary antibodies were labelled with Alexa Fluor® 546, Alexa Fluor® 647 or Alexa Fluor® 670 (Invitrogen), or IRDye800 (Rockland). For quantification of PML-NBs, cells were acquired using a Zeiss Meta 510 Confocal microscope, 63× objective NA (numerical aperture) 1.4 and appropriate laser and filter settings. Z-stacks were taken according to Nyquist criteria. Microscopic pictures were analysed with Volocity 6.2 Cellular Imaging & Analysis Software (PerkinElmer). Transfected cells were automatically identified within the 546 nm channel and the amount of PML-NBs (647 nm channel) that were localized within the nuclei of transfected cells were automatically counted.
# tetra-SUMO2–GFP–HA2 = assay: Proteasomal targeting of tetra-SUMO2–GFP–HA2 by RNF4 in yeast; assay type: cell-based, S. cerevisiae; details: yeast coexpressing RNF4; Western blot, normalized to CDC11
# Description: For expression in Escherichia coli, linear poly-SUMO chains were generated as described previously with slight modifications. After the combined PCR/ligation reaction, the 4×SUMO2-ΔN11 or 4×SUMO1-ΔN15 DNA polymers were separated from smaller polymers by agarose gel electrophoresis and individually extracted (Macherey–Nagel). These were then subjected to a second PCR with primers to create BamHI and XhoI restriction sites, a C-terminal GG motif and a stop codon. The resulting fragments coding for di-, tri- and tetra-SUMO2-ΔN11 or SUMO1-ΔN15 chains were amplified and cloned into pGEX-4T2. […] Each monomer in these chains is separated by RS replacing the natural GG motif. […]
# wt (wild-type) S. cerevisiae strains (JD47-13C) containing centromeric (low copy) plasmids expressing various (SUMO2)n–GFP–HA2 ([…]) fusions were grown overnight in minimal medium composed of 0.67% yeast nitrogen base with 2% raffinose as a carbon source. Cells from the overnight cultures were used to inoculate cultures with minimal media containing 2% galactose at a starting attenuance measured at 600 nm of 0.25. […] The levels of substrates and, as a loading control, levels of CDC11 were analysed by Western blotting and detection with an Odyssey infrared fluorescence imaging system (LI-COR).
molecule,measurement,setting,value
B1,number of PML-NBs after transfection,PML-NBs in HeLa cells,approximately five
same,level of tetra-SUMO2–GFP–HA reporter (control without RNF4 = 100%),tetra-SUMO2–GFP–HA2,43%
